The subject of this experiment is EGR1, ARC, and MAPK1 mRNA transcripts. The experiment in a line: Fluorescence in situ hybridization of mRNA transcripts in APP/PS1 hippocampus CA1. Format: in vivo, transgenic APP/PS1 mice. The following applies: CA1 region of hippocampus; all three groups compared. Here is the method: Coronal brain sections (10 μm thickness) were washed three times in PBS before mounting on gelatin-coated glass slides (Superfrost Plus, Thermo Fisher Scientific). Tissues were allowed to dry at RT and were then stored at −20° C. until use. Fluorescence in situ hybridization (FISH) was performed using Multiplex Reagent Kit V2 from RNAscope® Technology 2.0 (Advanced Cell Diagnostics (ACD), Hayward, Calif.). See Vasquez, J. J., Hussien, R., Aguilar-Rodriguez, B., Junger, H., Dobi, D., Henrich, T. J., Thanh, C., Gibson, E., Hogan, L. E., McCune, J., Hunt, P. W., Stoddart, C. A.,Laszik, Z. G., Elucidating the Burden of HIV in Tissues Using Multiplexed Immunofluorescence and In Situ Hybridization: Methods for the Single-Cell Phenotypic Characterization of Cells Harboring HIV In Situ. J Histochem Cytochem 2018; 66:427-46; Gershon, T. R., Crowther, A. J., Liu, H., Miller, C. R.,Deshmukh, M., Cerebellar granule neuron progenitors are the source of Hk2 in the postnatal cerebellum. Cancer Metab 2013; 1:15; and Smith, P. A., Schmid, C., Zurbruegg, S., Jivkov, M., Doelemeyer, A., Theil, D., Dubost, V., Beckmann, N., Fingolimod inhibits brain atrophy and promotes brain-derived neurotrophic factor in an animal model of multiple sclerosis. J Neuroimmunol 2018; 318:103-13. Mounted tissue sections were deparaffinized using xylene and serially dehydrated in 50%, 70%, 95%, and 100% ethanol for 5 min each. […]

The text below walks through data of patent publication US20220227815A1, “COMPOSITIONS AND METHODS USEFUL IN TREATING BRAIN DISEASES” (University of Kansas, priority 2019, published 2022).

B1: BDNF: recombinant brain-derived neurotrophic factor (13 kDa monomer), Peprotech (protein, UniProt P23560 19-247, looked up)
Neurotrophic factor BDNF …: APMKEANIRGQGGLAYPGVRTHGTLESVNGPKAGSRGLTSLADTFEHVIEELLDEDQKVRPNEENNKDADLYTSRVMLSSQVPLEPPLLFLLEEYKNYLDAANMSMRVRRHSDPARRGELSVCDSISEWVTAADKKTAVDMSGGTVTVLEKVPVSKGQLKQYFYETKCNPMGYTKEGCRGIDKRHWNSQCRTTQSYVRALTMDSKKRIGWRFIRIDTSCVCTLTIKRGR
Regarding B1, the MAPK1 expression entry is recorded as “no significant differences”.
